The record followed here is patent US20150111820A1, “NOVEL USE OF INSULIN DERIVATIVES” (Novo Nordisk A/S, priority 2012, published 2015).

On the set-up of this data set: species or system humans. As to conditions: in vivo.

Method: The simulation was performed using the software WinNonlin Professional 5.3 (Pharsight Inc., Mountain View, Calif., USA).

For “A14E, B25H, desB27, B29K(N^ε-(octadecandioyl-γGlu), desB30 human insulin [Compound 4]”, the “terminal half-life compared with Compound 6” value was “almost the same terminal half-life”. Regarding “A14E, B25H, B29K(N^ε-octadecandioyl-γGlu-OEG-OEG), desB30 human insulin [Compound 6]”, the elimination half-life came to 52 h and the elimination rate constant was determined as 0.013 h⁻¹.
